# Ends that are not written are not given here. * marks the point of attachment. 5‑TAMRA = 5-carboxytetramethylrhodamine, N-terminal label, CN(C)c1ccc2c(-c3ccc(C(=O)*)cc3C(=O)[O-])c3ccc(N(C)C)cc3[o+]c2c1
# T1: importin α8 (IMPα8), Arabidopsis thaliana, recombinant (Arabidopsis thaliana, UniProt Q9FJ92 1-441)
# T1 construct: importin alpha isoform 8 of Arabidopsis thaliana (contains only ARM repeats, no IBB domain); gene isolated from A. thaliana, cloned into pETEV21a; source: E. coli BL21gold, purified (Ni2+-IMAC)
# T1 sequence (looked up): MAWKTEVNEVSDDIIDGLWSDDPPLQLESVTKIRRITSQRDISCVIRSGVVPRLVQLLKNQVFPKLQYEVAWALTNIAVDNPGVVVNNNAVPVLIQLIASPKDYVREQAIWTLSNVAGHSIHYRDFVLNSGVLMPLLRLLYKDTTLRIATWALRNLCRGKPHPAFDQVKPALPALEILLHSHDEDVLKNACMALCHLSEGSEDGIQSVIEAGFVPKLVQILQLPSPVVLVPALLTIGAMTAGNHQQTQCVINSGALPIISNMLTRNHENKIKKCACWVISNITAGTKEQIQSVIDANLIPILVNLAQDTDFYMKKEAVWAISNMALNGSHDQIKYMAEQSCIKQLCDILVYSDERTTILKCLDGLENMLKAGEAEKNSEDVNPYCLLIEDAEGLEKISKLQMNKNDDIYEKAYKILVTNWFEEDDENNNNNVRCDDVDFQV
# T2: importin α6 (IMPα6), Arabidopsis thaliana, recombinant (Arabidopsis thaliana, UniProt Q9FWY7 1-538)
# T2 construct: importin alpha isoform 6 of Arabidopsis thaliana; gene synthesised by GenScript, cloned into pETEV21a; source: E. coli BL21pRARE, purified (Ni2+-IMAC)
# T2 sequence (looked up): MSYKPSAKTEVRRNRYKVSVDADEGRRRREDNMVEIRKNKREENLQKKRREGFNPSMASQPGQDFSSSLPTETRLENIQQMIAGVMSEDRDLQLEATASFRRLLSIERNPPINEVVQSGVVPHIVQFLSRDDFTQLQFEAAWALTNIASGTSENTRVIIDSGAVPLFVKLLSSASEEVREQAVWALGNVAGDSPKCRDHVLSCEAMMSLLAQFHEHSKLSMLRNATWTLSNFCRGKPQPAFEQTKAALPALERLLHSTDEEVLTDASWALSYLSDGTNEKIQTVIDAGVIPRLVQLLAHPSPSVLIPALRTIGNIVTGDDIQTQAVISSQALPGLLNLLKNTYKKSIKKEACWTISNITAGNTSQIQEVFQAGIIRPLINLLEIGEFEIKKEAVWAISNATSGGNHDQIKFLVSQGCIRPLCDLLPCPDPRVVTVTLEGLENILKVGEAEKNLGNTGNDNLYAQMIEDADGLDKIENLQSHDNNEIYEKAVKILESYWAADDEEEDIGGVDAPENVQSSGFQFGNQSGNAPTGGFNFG
# T3: importin α5 (IMPα5), Arabidopsis thaliana, recombinant (Arabidopsis thaliana, UniProt Q9FJ09 1-519)
# T3 construct: importin alpha isoform 5 of Arabidopsis thaliana; gene synthesised by GenScript, cloned into pETEV21a; IMPα5 was additionally cloned into pETEV16b (N-terminal deca-His-tag); source: E. coli BL21pRARE, purified (Ni2+-IMAC)
# T3 sequence (looked up): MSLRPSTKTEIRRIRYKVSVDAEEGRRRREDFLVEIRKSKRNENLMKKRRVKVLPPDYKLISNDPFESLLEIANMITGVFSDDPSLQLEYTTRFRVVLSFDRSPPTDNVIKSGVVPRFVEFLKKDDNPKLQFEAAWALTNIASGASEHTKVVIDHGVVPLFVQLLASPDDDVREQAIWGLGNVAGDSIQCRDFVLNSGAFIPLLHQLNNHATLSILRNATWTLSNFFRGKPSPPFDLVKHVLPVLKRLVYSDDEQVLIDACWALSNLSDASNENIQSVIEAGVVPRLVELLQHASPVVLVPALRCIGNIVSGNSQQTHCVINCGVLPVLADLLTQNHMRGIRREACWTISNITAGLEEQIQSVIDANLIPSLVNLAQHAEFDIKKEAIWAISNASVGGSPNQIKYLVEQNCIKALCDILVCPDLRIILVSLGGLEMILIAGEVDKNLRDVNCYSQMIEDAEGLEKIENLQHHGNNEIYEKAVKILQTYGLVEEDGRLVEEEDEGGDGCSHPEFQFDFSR
# T4: importin α9 (IMPα9), Arabidopsis thaliana, recombinant (Arabidopsis thaliana, UniProt F4KF65 1-519)
# T4 construct: importin alpha isoform 9 of Arabidopsis thaliana; gene synthesised by GenScript, cloned into pETEV21a; source: E. coli BL21pRARE, purified (Ni2+-IMAC)
# T4 sequence (looked up): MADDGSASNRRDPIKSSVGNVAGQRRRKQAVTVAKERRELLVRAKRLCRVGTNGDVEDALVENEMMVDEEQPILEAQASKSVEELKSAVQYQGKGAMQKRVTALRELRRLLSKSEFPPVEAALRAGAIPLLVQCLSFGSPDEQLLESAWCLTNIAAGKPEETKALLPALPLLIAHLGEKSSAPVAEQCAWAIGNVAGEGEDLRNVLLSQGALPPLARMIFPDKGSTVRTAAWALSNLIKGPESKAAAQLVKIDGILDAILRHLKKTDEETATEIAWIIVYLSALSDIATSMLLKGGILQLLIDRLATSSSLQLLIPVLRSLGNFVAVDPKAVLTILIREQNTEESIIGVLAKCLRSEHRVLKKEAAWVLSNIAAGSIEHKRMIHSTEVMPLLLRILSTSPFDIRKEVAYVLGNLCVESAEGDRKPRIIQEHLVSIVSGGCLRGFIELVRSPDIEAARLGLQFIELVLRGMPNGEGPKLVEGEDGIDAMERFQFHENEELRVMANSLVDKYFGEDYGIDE
# B1: NOP‐1 (EIN2 NLS peptide, EIN2 residues 1262–1269) (peptide)
# peptide: LKRYKRRL
# notes: 8 residues; The methods speak of amidated C-termini and acetylated N-termini of 'the D-ri-peptides'; whether this holds for NOP-1 is not clear; also called EIN2‐NLS core motif; basic EIN2‐NLS probe; source: synthetic peptide, bought: GenScript
# B2: GB1‐AtEIN2C^1215–1281 (domain or fragment, Arabidopsis thaliana, UniProt Q9S814 1215-1281, looked up)
# chain: KGKCTTAVTLLDLIKDVEMAISCRKGRTGTAAGDVAFPKGKENLASVLKRYKRRLSNKPVGMNQDGP
# notes: cloned into pETEV16b with a GB1-domain at the N terminus to enhance solubility; also called GB1_AtEIN2^1215–1281; shortened EIN2 CEND; source: E. coli BL21pRARE, purified (Ni2+-IMAC); not shown: GB1 domain, N-terminal, kept
# B3: N41P‐1 (EIN2 residues 1229–1269) (peptide, UniProt Q9S814 1229-1269, looked up)
# peptide: KDVEMAISCRKGRTGTAAGDVAFPKGKENLASVLKRYKRRL
# notes: 41 residues; The methods speak of amidated C-termini and acetylated N-termini of 'the D-ri-peptides'; whether this holds for N41P-1 is not clear; also called extended EIN2‐NLS probe N41P‐1; source: synthetic peptide, bought: GenScript
# B4: TAMRA‐NOP‐1 (EIN2 NLS peptide, N‐terminally labeled with 5‐TAMRA) (peptide)
# peptide: {5‑TAMRA}-LKRYKRRL
# notes: also called fluorescently labeled NOP‐1; source: synthetic peptide (solid-phase peptide synthesis, Fmoc, made in house)
# What was measured:
# Details in all cases: both partners purified
# [1] = target: T5, importin α4 (IMPα4), Arabidopsis thaliana, recombinant (Arabidopsis thaliana, UniProt O80480 1-538, biotin (Biotin-PEG4-NHS ester Protein Labeling Kit) in the BLI experiments only); experiment: fluorescence polarisation; competition: TAMRA-NOP-1 and IMPα4 (6 μM) held constant, unlabelled competitor concentration varied; Logistic Fit in Origin; n = 3
# T5 construct: importin alpha isoform 4 of Arabidopsis thaliana; gene isolated from A. thaliana, cloned into pETEV21a; Unlabelled in fluorescence polarisation; biotinylated and held on streptavidin tips in BLI; source: E. coli BL21pRARE, purified (Ni2+-IMAC)
# [2] = target: T5, importin α4 (IMPα4), Arabidopsis …; experiment: BLI; Octet K2; biotinylated ΔIBB_IMPα1 or IMPα4 loaded (15 μM, 600 s) on streptavidin biosensors; peptides/protein in solution; 100 mM Tris pH 7.0, 100 mM KCl, 0.01% Tween 20; room temperature; 300 s association, 300 s dissociation; dose response curves, 1:2 heterogeneous ligand model
# [3] = target: T1, importin α8 (IMPα8), Arabidopsis …; experiment: fluorescence polarisation; direct titration: TAMRA-NOP-1 constant at 250 nM, IMPα protein concentration varied; 50 μL samples; LS55 spectrometer; Kd by Logistic Fit in Origin; three independent measurements
# [4] = target: T2, importin α6 (IMPα6), Arabidopsis …; experiment: as above
# [5] = target: T6, importin α3 (IMPα3), Arabidopsis thaliana, recombinant (Arabidopsis thaliana, UniProt O04294 1-531); experiment: as above
# T6 construct: importin alpha isoform 3 of Arabidopsis thaliana; gene isolated from A. thaliana, cloned into pETEV21a; source: E. coli BL21pRARE, purified (Ni2+-IMAC)
# [6] = target: T3, importin α5 (IMPα5), Arabidopsis …; experiment: as above
# [7] = target: T7, importin α2 (IMPα2), Arabidopsis thaliana, recombinant (Arabidopsis thaliana, UniProt F4JL11 1-535); experiment: as above
# T7 construct: importin alpha isoform 2 of Arabidopsis thaliana; gene isolated from A. thaliana, cloned into pETEV21a; source: E. coli BL21pRARE, purified (Ni2+-IMAC)
# [8] = target: T4, importin α9 (IMPα9), Arabidopsis …; experiment: as above
# [9] = target: T5, importin α4 (IMPα4), Arabidopsis …; experiment: as above
# T5 sequence (O80480 whole entry, canonical isoform): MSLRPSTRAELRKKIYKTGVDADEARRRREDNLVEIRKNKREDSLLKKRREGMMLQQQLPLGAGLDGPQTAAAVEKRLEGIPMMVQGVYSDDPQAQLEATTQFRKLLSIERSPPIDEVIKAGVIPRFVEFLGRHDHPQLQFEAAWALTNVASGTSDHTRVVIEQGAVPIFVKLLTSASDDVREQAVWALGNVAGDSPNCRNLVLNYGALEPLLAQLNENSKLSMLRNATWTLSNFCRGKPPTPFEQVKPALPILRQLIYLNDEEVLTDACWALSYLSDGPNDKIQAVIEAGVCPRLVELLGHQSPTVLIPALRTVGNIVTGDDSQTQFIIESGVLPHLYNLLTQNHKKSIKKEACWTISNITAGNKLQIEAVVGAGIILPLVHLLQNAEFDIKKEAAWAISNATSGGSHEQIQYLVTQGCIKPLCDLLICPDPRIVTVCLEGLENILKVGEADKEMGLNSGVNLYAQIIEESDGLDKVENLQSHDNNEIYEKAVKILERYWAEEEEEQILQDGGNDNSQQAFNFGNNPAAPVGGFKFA
# T7 sequence (F4JL11 whole entry, canonical isoform): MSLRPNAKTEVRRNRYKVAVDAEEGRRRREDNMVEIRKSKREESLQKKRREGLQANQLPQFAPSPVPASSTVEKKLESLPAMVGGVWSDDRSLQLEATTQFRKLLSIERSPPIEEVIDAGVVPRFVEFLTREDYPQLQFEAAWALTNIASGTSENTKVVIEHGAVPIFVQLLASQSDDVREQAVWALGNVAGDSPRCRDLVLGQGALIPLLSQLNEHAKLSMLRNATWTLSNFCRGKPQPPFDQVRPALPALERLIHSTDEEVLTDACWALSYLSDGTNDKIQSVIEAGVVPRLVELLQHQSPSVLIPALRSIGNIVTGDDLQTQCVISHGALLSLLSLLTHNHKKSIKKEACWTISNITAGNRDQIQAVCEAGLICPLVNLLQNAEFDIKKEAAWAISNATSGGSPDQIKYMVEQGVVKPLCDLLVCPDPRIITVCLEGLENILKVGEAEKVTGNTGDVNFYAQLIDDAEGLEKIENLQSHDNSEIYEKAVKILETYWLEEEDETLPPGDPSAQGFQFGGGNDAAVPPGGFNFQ
# T6 sequence (O04294 whole entry, canonical isoform): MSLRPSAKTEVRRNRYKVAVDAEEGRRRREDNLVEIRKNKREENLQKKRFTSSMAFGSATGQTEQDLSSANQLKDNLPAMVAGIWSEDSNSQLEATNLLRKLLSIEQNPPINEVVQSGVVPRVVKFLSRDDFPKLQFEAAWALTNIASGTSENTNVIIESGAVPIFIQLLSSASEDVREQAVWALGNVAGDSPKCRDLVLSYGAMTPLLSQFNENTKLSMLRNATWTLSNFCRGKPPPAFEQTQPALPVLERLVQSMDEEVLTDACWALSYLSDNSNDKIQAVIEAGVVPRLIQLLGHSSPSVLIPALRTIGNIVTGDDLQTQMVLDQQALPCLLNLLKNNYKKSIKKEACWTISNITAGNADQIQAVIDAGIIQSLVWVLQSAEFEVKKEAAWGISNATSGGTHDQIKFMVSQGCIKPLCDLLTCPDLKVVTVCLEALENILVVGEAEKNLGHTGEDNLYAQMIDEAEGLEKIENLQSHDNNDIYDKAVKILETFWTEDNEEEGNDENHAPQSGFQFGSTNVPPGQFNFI
binder,measurement,setting,value
B1,Kd,[1],4.1 ± 0.4 µM
same,Kd,[2],7.6 µM
B2,Kd,[1],22.1 ± 2.8 µM
same,Kd high,[2],21.4 µM
same,Kd low,[2],0.455 µM
B3,Kd,[1],8.1 ± 1.1 µM
same,Kd,[2],9.8 µM
B4,Kd,[3],7.9 ± 0.2 µM
same,Kd,[4],8.7 ± 1.5 µM
same,binding result,[5],binds
same,Kd,[6],12.9 ± 0.9 µM
same,binding result,[7],binds
same,Kd,[8],13.8 ± 0.9 µM
same,Kd,[9],~6 µM

# Reference: article PMC12871931, “The importin‐alpha superfamily engages in ethylene signaling by shuttling [sequence] INSENSITIVE 2 from the endoplasmic reticulum to the nucleus” (The Febs Journal, 2025)
